Data on one molecule can be found in patent US5972698 (Novartis Corporation, dated 1999).

In the assay the target is bovine trypsin (bovine, UniProt P00760). In words: equilibrium dissociation constants (Ki) from enzyme inhibition.

KKVCACPKILKPVCGSDGRTYANSCIARCNGVSIKSEGSCPTGILN (other): the binding result is “binds”.
